Our source for the Kd values is publication PMC4227767, “Dye label interference with RNA modification reveals 5-fluorouridine as non-covalent inhibitor”.

The target in series [1] is T1, TruB (tmTruB), tRNA pseudouridine-55 synthase (Thermotoga maritima, UniProt Q9WZW0 1-309).
T1 sequence: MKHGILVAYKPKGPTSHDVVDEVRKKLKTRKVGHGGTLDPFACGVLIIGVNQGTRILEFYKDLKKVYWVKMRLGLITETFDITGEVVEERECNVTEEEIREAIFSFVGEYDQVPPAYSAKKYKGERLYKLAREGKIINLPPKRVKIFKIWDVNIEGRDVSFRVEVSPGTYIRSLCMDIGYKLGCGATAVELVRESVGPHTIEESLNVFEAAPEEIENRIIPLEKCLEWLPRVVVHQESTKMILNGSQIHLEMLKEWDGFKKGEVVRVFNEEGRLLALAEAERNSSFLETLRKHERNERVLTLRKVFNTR
In words: fluorescence titration (spectral shifts, lifetime/anisotropy); average over three titration curves; 200 nM tRNA; 1x MST buffer (composition not in material); tRNA folded 4 min 75 C in water then cooled in buffer; MST at 25 C, 50 nM tRNA; fluorescence at 200 nM tRNA; SDS-PAGE complexes formed at 25 or 70 C. The settings on record: protein: recombinant, tRNA fold.

The target of series [2] is T1, TruB (tmTruB), tRNA pseudouridine-55 …. Nature of the series: MST; one of three runs 1 month apart; unit cut off in the material (nM assumed); 1x MST buffer (composition not in material); tRNA folded 4 min 75 C in water then cooled in buffer; MST at 25 C, 50 nM tRNA; fluorescence at 200 nM tRNA; SDS-PAGE complexes formed at 25 or 70 C. The following applies: protein: recombinant; label: Cy5 at U33 (internal); tRNA fold.

B1: C49-5FU55-tRNA (Cy5 at C49) (structured_RNA)
RNA: GCGGAUUUAGCUCAGUUGGGAGAGCGCCAGACUGAAGAUCUGGAGGUCCUGUGUUCGAUCCACAGAAUUCGCACCA
modifications: 5-fluorouridine at position 55; 5-aminohexyl-3-acrylimido-deoxycytidine at C49
Consider B1, for which the Kd (in general, a measure of binding affinity in units of concentration) in series [1] (label: Cy5 at C49 (internal)) was 124 nM.

B2: U33-5FU55-tRNA (Cy5 at U33) (structured_RNA)
RNA: GCGGAUUUAGCUCAGUUGGGAGAGCGCCAGACUGAAGAUCUGGAGGUCCUGUGUUCGAUCCACAGAAUUCGCACCA
modifications: 5-fluorouridine at position 55; 5-aminohexyl-3-acrylimido-uridine at U33
With B2, the Kd in series [2] amounted to 37.3 nM; in series [1] (label: Cy5 at U33 (internal)) it was 3.7 nM.

B3: C49-U55-tRNA (Cy5 at C49) (structured_RNA)
RNA: GCGGAUUUAGCUCAGUUGGGAGAGCGCCAGACUGAAGAUCUGGAGGUCCUGUGUUCGAUCCACAGAAUUCGCACCA
modifications: 5-aminohexyl-3-acrylimido-deoxycytidine at C49
B3: the dissociation constant (Kd) in series [1] (label: Cy5 at C49 (internal)) is 226 nM.
